The values below come from patent US8287850B2, “Conjugates of hydroxyalkyl starch and a protein, prepared by reductive amination” (Fresenius Kabi Deutschland GmbH, priority 2004, dated 2012).

Series [1] can be described thus: In-vivo half-life of alpha1AT samples in mice (alpha1AT-ELISA). The conditions noted are these: 100 μl of 50 μg/ml i.v. tail vein, female BALB/c mice. The procedure:
Female mice aged 8-10 weeks (BALB/cOlaHsd, Harlan GmbH, Borchen, Germany) were utilized as test organism (42 mice, 14 per sample). The “is bodyweight” of each animal was detected right before administration of the different sample solutions. 100 μl of a 50 μg/ml solution of the samples outlined below in a puffer pH=7.2 (20 mmol sodium phosphate, 150 mmol sodium chloride) were injected intravenously in the tail vein of the mice.
At 1, 2, 4, 10, 24, 31, […], hours after injection, two mice of each group were killed and whole blood samples (˜500 μl) were withdrawn from the heart of the animals. Serum was prepared using Microvette® 500 Z-Gel (Sarstedt, Nümbrecht, Germany). The serum samples were stored at −80° C. until the beginning of the alpha1AT concentration measurements.
alpha1AT concentrations were detected using a commercially available alpha1AT-ELISA (Immundiagnostik, Bensheim, Germany) following the manufacturers instructions.
A general note: ELISA stands for enzyme-linked immunosorbent assay.

The conditions of series [2]: cited from earlier work.

On to “HES-A1AT-conjugate: conjugate of aldehydo-HES (A) and (B) (MW 57,000 D, DS 0.76) with rh A1AT, example 5.5”, for which, in series [1], the “Plasma half-life in mice” value is given as 3.6 h.
As to “Sample 3: plasma derived h alpha1 AT (SERVA Electrophoresis GmbH) [reference compound]”, the “Plasma half-life in mice” value in series [1] is recorded as 3.2 h.
For activated protein C, the “circulatory activity half-life in vivo” value in series [2] is recorded as “less than 30 min”.
In the case of “A1AT: rh A1AT provided by GTC Biotherapeutics Inc., lot No. 080604A; starting material for the conjugation [Example A1AT]”, the “Plasma half-life in mice” value in series [1] worked out at 1.2 h.
